Experimental data published in article PMC3229523, “Identification of Lactoferricin B Intracellular Targets Using an Escherichia coli Proteome Chip” (PLoS ONE, 2011).
Ends that are not written are not given here. * marks the point of attachment. Biotin = O=C1N[C@H]2[C@H](CS[C@H]2CCCCC(=O)*)N1

Legend:
Assay in all cases: peptide or protein array; E. coli proteome chip: purified His-tagged proteins printed in duplicate on Fullmoon slides, blocked with 1% BSA; 10 nM N-terminal biotinylated LfcinB with 1% BSA, room temperature, 1 h; detected with DyLight 649-labeled streptavidin, ratio to DyLight 549-labeled anti-His antibody; ProCAT normalisation, local cut-off; triplicate chips
Settings in all cases: both partners purified
[1] = molecular target: RplE (E. coli K-12, UniProt P62399 1-179)
[2] = molecular target: T1, YjfW (E. coli K-12, UniProt P39305 1-284)
T1 construct: YjfW, E. coli K-12
T1 sequence (looked up): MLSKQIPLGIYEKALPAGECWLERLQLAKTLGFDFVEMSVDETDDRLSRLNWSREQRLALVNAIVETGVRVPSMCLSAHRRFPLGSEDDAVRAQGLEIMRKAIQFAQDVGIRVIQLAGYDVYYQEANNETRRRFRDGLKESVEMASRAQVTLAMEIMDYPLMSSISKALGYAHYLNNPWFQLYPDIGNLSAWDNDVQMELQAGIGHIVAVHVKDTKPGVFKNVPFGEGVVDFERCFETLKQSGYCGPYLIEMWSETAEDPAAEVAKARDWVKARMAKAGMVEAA

[3] = molecular target: T2, YdiT (E. coli K-12, UniProt P77714 1-97)
T2 construct: YdiT, E. coli K-12
T2 sequence (looked up): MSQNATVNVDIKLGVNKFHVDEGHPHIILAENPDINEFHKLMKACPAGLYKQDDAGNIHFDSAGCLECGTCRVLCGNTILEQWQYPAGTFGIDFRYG

[4] = molecular target: T3, Adi (E. coli K-12, UniProt P28629 1-755)
T3 construct: Adi, E. coli K-12
T3 sequence (looked up): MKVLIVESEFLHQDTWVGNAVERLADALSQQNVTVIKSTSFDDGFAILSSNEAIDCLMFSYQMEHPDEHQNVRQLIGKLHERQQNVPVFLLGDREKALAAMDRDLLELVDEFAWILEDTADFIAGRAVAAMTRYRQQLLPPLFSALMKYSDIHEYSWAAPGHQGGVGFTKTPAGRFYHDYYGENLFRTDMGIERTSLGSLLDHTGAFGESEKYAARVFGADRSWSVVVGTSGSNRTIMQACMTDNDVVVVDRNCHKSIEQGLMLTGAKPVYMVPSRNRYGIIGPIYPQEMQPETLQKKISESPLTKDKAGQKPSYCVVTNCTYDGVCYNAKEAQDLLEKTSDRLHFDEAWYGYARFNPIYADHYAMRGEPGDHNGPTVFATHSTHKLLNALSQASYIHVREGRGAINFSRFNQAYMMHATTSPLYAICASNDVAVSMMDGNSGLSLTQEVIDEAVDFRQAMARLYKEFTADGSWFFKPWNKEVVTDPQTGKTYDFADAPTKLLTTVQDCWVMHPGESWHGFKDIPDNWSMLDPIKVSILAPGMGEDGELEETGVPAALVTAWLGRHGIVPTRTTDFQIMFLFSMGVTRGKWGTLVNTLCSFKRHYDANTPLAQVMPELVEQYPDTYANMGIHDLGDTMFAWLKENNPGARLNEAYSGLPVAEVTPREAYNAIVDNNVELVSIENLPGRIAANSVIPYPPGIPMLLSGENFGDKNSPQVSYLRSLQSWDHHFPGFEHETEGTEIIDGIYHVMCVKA

[5] = molecular target: T4, SoxR (E. coli K-12, UniProt P0ACS2 1-154)
T4 construct: SoxR, E. coli K-12
T4 sequence (looked up): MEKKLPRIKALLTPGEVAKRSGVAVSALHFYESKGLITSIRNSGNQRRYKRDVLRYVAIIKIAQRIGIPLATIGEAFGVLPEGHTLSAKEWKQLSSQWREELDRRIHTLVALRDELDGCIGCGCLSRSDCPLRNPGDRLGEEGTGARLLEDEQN

[6] = molecular target: T5, YdaU (E. coli K-12, UniProt P76065 1-285)
T5 construct: YdaU, E. coli K-12
T5 sequence (looked up): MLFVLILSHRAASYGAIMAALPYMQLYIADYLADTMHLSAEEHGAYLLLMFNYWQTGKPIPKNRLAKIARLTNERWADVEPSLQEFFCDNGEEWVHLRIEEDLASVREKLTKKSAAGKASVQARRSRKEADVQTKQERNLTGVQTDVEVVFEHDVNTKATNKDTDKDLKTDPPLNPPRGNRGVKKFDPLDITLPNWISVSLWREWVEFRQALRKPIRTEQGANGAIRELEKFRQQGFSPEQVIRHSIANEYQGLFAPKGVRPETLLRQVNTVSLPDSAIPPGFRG

Measured: binding result

B1: N-terminal biotinylated Lactoferricin B (peptide, UniProt P24627 36-60, looked up)
peptide: Biotin-FKCRRWQWRMKKLGAPSITCVRRAF
modifications: ends and bridges not checked
notes: lactoferricin B (LfcinB), cationic antimicrobial peptide of 25 amino acids; also called biotinylated LfcinB; biotin-labeled LfcinB; source: bought: Kelowna Inc
binds: all assays above
